Assay results as given in patent US20050277575A1 (published 2005).

Biological target: T1, S100A4 protein (recombinant human, GST tag removed) (human)
T1 chain: YVERW
Assay: cell-based or functional assay

Ac-AGLREVYGASLASYMERW-NH2 [peptide SEQ ID NO 6, Ac-AGLREVYGASLASYMERW-amide]
IC50 for inhibition of the accelerating effect of S100A4 on t-PA-dependent conversion of plasminogen to plasmin: 6 µM
